Test results taken from patent US20260055162A1.

What was measured:
Experiment in all cases: cell-based or functional assay
[1] = target: AA-TGFB-061 (TGFB-061), TGF-BR2 ECD-CD28 Long TM-TRAF3 ICD
[2] = target: AA-TGFB-072 (TGFB-072), TGF-BR2 ECD-SLAMF6 TM-SLAMF6 ICD
[3] = target: AA-TGFB-079 (TGFB-079), TGF-BR2 ECD-FGFR1 TM-FGFR1 ICD
[4] = target: AA-TGFB-064 (TGFB-064), TGF-BR2 ECD-CD28 Long TM-TIRAP ICD
[5] = target: AA-TGFB-007 (TGFB-007), TGF-BR2 ECD-TGFBR2 TM-TGFBR2 truncated ICD (Homo sapiens (Human)) (UniProt P37173)
[6] = target: AA-TGFB-088 (TGFB-088), TGF-BR2 ECD-DR3 TM-DR3 ICD
[7] = target: AA-TGFB-074 (TGFB-074), TGF-BR2 ECD-LFA2 TM-LFA2 ICD
[8] = target: AA-TGFB-080 (TGFB-080), TGF-BR2 ECD-DNAM1 TM-DNAM1 ICD
[9] = target: AA-TGFB-077 (TGFB-077), TGF-BR2 ECD-GCSFR TM-GCSFR ICD
[10] = target: AA-TGFB-059 (TGFB-059), TGF-BR2 ECD-CD28 Long TM-TRAF1 ICD
[11] = target: AA-TGFB-069 (TGFB-069), TGF-BR2 ECD-2B4 TM-2B4 ICD
[12] = target: AA-TGFB-087 (TGFB-087), TGF-BR2 ECD-TLR4 TM-TLR4 ICD
[13] = target: AA-TGFB-096 (TGFB-096), TGF-BR2 ECD-CD28 Long TM-Fgr ICD
[14] = target: AA-TGFB-065 (TGFB-065), TGF-BR2 ECD-CD28 Long TM-BLNK ICD
[15] = target: AA-TGFB-019 (TGFB-019), TGF-BR2 ECD-CD28 TM-CD28 ICD
[16] = target: AA-TGFB-066 (TGFB-066), TGF-BR2 ECD-CD28 Long TM-GRB2 ICD
[17] = target: AA-TGFB-078 (TGFB-078), TGF-BR2 ECD-CSF1R TM-CSF1R ICD
Chain of AA-TGFB-078 (TGFB-078), TGF-BR2 ECD-CSF1R TM-CSF1R ICD (chain, as listed by the source limits assumed, form in doubt): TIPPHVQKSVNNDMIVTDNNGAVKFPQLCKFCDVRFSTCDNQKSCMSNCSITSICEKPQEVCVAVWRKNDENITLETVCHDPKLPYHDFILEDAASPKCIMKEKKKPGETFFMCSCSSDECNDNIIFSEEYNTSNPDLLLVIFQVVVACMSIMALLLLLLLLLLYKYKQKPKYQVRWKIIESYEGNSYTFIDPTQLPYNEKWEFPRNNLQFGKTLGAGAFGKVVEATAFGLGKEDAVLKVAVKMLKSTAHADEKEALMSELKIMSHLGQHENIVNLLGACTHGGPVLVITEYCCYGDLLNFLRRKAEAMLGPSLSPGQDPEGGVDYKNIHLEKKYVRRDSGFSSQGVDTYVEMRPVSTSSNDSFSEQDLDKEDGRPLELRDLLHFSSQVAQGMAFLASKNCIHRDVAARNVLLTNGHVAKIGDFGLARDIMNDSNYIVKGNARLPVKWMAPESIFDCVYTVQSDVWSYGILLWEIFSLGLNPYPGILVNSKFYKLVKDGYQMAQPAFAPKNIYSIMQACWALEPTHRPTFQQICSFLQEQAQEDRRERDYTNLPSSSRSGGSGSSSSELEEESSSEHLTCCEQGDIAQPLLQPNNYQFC

Chain of AA-TGFB-064 (TGFB-064), TGF-BR2 ECD-CD28 Long TM-TIRAP ICD (chain, as listed by the source limits assumed, form in doubt): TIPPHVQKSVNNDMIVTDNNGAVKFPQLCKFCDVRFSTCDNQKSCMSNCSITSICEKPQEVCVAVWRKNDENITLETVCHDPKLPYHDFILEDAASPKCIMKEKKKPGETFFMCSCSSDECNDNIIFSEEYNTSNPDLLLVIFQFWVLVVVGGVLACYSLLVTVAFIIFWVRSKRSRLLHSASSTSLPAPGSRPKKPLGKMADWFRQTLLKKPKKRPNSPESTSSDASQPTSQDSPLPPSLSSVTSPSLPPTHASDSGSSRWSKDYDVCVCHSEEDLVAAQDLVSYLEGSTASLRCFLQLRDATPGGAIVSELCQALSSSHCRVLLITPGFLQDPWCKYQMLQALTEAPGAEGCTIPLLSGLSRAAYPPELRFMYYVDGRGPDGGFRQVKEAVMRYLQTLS
Chain of AA-TGFB-066 (TGFB-066), TGF-BR2 ECD-CD28 Long TM-GRB2 ICD (chain, as listed by the source limits assumed, form in doubt): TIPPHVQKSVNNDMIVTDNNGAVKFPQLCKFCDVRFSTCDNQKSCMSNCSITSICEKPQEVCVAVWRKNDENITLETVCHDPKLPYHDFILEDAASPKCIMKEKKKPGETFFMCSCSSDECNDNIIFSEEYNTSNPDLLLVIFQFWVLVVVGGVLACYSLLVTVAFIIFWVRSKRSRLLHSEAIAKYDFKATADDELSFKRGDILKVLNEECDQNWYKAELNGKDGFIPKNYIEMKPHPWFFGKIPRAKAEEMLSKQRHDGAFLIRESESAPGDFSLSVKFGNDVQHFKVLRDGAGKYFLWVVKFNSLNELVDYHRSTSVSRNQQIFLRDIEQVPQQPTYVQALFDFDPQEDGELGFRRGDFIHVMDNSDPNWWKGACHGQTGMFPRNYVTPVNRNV
Chain of AA-TGFB-007 (TGFB-007), TGF-BR2 ECD-TGFBR2 TM-TGFBR2 truncated ICD (Homo sapiens (Human)) (P37173 23-199, form in doubt): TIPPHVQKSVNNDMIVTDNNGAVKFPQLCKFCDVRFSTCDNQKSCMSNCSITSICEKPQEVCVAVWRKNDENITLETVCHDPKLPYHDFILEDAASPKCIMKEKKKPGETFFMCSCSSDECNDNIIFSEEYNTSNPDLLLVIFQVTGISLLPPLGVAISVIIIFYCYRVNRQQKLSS
Chain of AA-TGFB-079 (TGFB-079), TGF-BR2 ECD-FGFR1 TM-FGFR1 ICD (chain, as listed by the source limits assumed, form in doubt): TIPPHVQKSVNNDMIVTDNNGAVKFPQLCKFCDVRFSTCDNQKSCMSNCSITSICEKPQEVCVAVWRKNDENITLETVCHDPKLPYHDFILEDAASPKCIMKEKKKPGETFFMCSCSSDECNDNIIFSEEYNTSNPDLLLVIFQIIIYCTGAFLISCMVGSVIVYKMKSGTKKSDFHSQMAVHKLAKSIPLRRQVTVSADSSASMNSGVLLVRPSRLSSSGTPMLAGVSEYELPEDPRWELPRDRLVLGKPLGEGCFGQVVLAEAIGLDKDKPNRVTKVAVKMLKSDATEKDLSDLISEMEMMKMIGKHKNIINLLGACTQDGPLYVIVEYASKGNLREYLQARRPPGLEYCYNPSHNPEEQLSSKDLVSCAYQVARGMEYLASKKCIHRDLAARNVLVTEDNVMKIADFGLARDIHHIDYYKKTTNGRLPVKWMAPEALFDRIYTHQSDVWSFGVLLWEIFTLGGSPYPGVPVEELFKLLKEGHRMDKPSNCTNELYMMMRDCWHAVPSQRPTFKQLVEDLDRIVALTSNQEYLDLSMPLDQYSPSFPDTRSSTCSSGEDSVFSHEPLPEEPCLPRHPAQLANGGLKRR
Chain of AA-TGFB-019 (TGFB-019), TGF-BR2 ECD-CD28 TM-CD28 ICD (chain, as listed by the source limits assumed, form in doubt): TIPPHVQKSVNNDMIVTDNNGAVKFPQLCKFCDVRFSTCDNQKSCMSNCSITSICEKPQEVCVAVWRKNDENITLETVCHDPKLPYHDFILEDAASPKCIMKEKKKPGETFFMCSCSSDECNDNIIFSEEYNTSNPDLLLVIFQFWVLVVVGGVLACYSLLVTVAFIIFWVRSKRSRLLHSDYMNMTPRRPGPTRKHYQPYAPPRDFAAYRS
Chain of AA-TGFB-061 (TGFB-061), TGF-BR2 ECD-CD28 Long TM-TRAF3 ICD (chain, as listed by the source limits assumed, form in doubt): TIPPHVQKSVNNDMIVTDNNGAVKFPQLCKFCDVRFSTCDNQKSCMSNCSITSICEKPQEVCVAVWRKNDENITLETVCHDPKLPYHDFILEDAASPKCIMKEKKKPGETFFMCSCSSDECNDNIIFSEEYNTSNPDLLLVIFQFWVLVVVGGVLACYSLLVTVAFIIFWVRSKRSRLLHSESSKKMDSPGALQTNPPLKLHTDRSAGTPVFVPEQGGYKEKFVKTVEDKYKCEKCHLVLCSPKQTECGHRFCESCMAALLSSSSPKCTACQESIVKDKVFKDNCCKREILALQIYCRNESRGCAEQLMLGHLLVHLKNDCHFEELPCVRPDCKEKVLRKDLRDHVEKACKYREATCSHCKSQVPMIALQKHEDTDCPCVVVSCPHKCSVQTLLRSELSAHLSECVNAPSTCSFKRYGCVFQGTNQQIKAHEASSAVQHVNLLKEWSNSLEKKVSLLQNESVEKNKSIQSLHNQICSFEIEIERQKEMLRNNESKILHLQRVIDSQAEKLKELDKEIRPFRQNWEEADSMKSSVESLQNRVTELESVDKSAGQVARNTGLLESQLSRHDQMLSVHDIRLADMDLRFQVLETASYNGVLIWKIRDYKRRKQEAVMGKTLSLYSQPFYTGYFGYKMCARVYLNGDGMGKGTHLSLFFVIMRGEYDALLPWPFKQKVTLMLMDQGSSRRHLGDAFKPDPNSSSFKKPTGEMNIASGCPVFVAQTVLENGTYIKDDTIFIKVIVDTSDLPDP
Chain of AA-TGFB-072 (TGFB-072), TGF-BR2 ECD-SLAMF6 TM-SLAMF6 ICD (chain, as listed by the source limits assumed, form in doubt): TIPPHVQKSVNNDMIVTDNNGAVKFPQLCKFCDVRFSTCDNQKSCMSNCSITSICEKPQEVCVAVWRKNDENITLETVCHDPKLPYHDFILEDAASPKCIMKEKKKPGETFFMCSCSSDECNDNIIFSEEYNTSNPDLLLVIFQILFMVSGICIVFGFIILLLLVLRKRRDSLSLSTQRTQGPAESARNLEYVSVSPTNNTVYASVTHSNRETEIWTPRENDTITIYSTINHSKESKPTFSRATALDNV
Chain of AA-TGFB-059 (TGFB-059), TGF-BR2 ECD-CD28 Long TM-TRAF1 ICD (chain, as listed by the source limits assumed, form in doubt): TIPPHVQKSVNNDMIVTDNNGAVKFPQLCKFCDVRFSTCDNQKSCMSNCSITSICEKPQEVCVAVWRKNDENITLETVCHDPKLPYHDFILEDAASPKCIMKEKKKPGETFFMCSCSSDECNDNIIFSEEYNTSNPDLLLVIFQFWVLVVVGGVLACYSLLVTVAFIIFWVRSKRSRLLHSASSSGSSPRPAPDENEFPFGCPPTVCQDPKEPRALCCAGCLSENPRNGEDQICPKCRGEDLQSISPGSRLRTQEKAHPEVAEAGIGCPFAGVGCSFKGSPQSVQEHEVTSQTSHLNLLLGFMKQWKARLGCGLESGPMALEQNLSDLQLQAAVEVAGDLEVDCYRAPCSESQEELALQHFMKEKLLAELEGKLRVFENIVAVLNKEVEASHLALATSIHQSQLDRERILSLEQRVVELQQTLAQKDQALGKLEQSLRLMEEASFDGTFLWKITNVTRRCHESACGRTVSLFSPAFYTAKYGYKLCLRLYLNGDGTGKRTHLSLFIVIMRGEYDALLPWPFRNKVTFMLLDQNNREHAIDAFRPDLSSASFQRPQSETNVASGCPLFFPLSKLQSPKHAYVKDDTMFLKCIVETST
Chain of AA-TGFB-074 (TGFB-074), TGF-BR2 ECD-LFA2 TM-LFA2 ICD (chain, as listed by the source limits assumed, form in doubt): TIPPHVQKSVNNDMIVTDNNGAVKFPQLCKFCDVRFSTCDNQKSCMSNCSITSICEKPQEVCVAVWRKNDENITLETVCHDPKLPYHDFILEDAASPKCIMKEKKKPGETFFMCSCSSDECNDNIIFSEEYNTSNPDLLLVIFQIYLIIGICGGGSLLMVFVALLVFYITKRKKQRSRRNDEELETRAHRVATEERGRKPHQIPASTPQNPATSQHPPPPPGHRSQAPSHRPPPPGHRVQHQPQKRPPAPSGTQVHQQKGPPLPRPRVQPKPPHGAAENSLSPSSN
Chain of recombinant TGF-B1 cytokine (P01137 279-390 limits assumed): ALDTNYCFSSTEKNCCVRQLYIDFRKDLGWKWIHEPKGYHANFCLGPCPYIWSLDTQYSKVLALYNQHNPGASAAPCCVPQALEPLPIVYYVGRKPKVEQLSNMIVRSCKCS
Chain of AA-TGFB-077 (TGFB-077), TGF-BR2 ECD-GCSFR TM-GCSFR ICD (chain, as listed by the source limits assumed, form in doubt): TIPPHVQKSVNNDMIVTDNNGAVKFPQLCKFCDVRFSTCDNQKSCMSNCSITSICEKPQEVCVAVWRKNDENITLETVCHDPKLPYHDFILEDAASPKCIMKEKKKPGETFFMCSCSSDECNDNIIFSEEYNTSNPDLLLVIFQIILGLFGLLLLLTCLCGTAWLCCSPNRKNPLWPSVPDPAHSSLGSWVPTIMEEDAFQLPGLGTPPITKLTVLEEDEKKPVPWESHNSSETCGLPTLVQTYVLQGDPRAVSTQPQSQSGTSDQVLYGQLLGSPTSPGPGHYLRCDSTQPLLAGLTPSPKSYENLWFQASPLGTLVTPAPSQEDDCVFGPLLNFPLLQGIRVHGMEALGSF

recombinant TGF-B1 cytokine (from UniProt P01137 279-390) (ligand)
5-Day Fold Expansion of NK cells, 10 ng/mL TGF-B1 [1]: 1.29 fold
Average % Killing (SKOV-3), 10 ng/mL TGF-B1 [1]: 8.9%
Average IFNg Secretion, 10 ng/mL TGF-B1 [1]: 3090 pg/mL
Average IP-10 Secretion, 10 ng/mL TGF-B1 [1]: 762
5-Day Fold Expansion of NK cells, 10 ng/mL TGF-B1 [2]: 3.89 fold
Average % Killing (SKOV-3), 10 ng/mL TGF-B1 [2]: 15%
Average IFNg Secretion, 10 ng/mL TGF-B1 [2]: 8700 pg/mL
Average IP-10 Secretion, 10 ng/mL TGF-B1 [2]: 1880
5-Day Fold Expansion of NK cells, 10 ng/mL TGF-B1 [3]: 1.49 fold
Average % Killing (SKOV-3), 10 ng/mL TGF-B1 [3]: 9.28%
Average IFNg Secretion, 10 ng/mL TGF-B1 [3]: 3580 pg/mL
Average IP-10 Secretion, 10 ng/mL TGF-B1 [3]: 685
5-Day Fold Expansion of NK cells, 10 ng/mL TGF-B1 [4]: 1.04 fold
Average % Killing (SKOV-3), 10 ng/mL TGF-B1 [4]: 9.89%
Average IFNg Secretion, 10 ng/mL TGF-B1 [4]: 4790 pg/mL
Average IP-10 Secretion, 10 ng/mL TGF-B1 [4]: 1540
5-Day Fold Expansion of NK cells, 10 ng/mL TGF-B1 [5]: 2 fold
Average % Killing (SKOV-3), 10 ng/mL TGF-B1 [5]: 24.1%
Average IFNg Secretion, 10 ng/mL TGF-B1 [5]: > 9000 pg/mL
Average IP-10 Secretion, 10 ng/mL TGF-B1 [5]: 2150
CD69, fold-change of MFI over no stimulation, High (0.05 ug/mL) [5]: 1.2 fold
CD69, fold-change of MFI over no stimulation, Low (0.002 ug/mL) [5]: 1.4 fold
CD69, fold-change of MFI over no stimulation, Med. (0.01 ug/mL) [5]: 1.2 fold
GFP, fold-change of MFI over no stimulation, High (0.05 ug/mL) [5]: 0.8 fold
GFP, fold-change of MFI over no stimulation, Low (0.002 ug/mL) [5]: 0.7 fold
GFP, fold-change of MFI over no stimulation, Med. (0.01 ug/mL) [5]: 0.7 fold
5-Day Fold Expansion of NK cells, 10 ng/mL TGF-B1 [6]: 0.66 fold
Average % Killing (SKOV-3), 10 ng/mL TGF-B1 [6]: 2.23%
5-Day Fold Expansion of NK cells, 10 ng/mL TGF-B1 [7]: 2.4 fold
Average % Killing (SKOV-3), 10 ng/mL TGF-B1 [7]: 11.2%
Average IFNg Secretion, 10 ng/mL TGF-B1 [7]: 5730 pg/mL
Average IP-10 Secretion, 10 ng/mL TGF-B1 [7]: 1170
5-Day Fold Expansion of NK cells, 10 ng/mL TGF-B1 [8]: 2.11 fold
Average % Killing (SKOV-3), 10 ng/mL TGF-B1 [8]: 10.8%
Average IFNg Secretion, 10 ng/mL TGF-B1 [8]: 4380 pg/mL
Average IP-10 Secretion, 10 ng/mL TGF-B1 [8]: 1230
5-Day Fold Expansion of NK cells, 10 ng/mL TGF-B1 [9]: 2.52 fold
Average % Killing (SKOV-3), 10 ng/mL TGF-B1 [9]: 14.4%
Average IFNg Secretion, 10 ng/mL TGF-B1 [9]: 6640 pg/mL
Average IP-10 Secretion, 10 ng/mL TGF-B1 [9]: 1410
5-Day Fold Expansion of NK cells, 10 ng/mL TGF-B1 [10]: 0.9 fold
Average % Killing (SKOV-3), 10 ng/mL TGF-B1 [10]: 7.99%
Average IFNg Secretion, 10 ng/mL TGF-B1 [10]: 3060 pg/mL
Average IP-10 Secretion, 10 ng/mL TGF-B1 [10]: 1300
5-Day Fold Expansion of NK cells, 10 ng/mL TGF-B1 [11]: 3.86 fold
Average % Killing (SKOV-3), 10 ng/mL TGF-B1 [11]: 14.4%
Average IFNg Secretion, 10 ng/mL TGF-B1 [11]: > 9000 pg/mL
Average IP-10 Secretion, 10 ng/mL TGF-B1 [11]: 2340
5-Day Fold Expansion of NK cells, 10 ng/mL TGF-B1 [12]: 2.51 fold
Average % Killing (SKOV-3), 10 ng/mL TGF-B1 [12]: 11.9%
Average IFNg Secretion, 10 ng/mL TGF-B1 [12]: 6060 pg/mL
Average IP-10 Secretion, 10 ng/mL TGF-B1 [12]: 1260
5-Day Fold Expansion of NK cells, 10 ng/mL TGF-B1 [13]: 1 fold
Average % Killing (SKOV-3), 10 ng/mL TGF-B1 [13]: 16%
Average IFNg Secretion, 10 ng/mL TGF-B1 [13]: > 9000 pg/mL
Average IP-10 Secretion, 10 ng/mL TGF-B1 [13]: 2330
5-Day Fold Expansion of NK cells, 10 ng/mL TGF-B1 [14]: 0.71 fold
Average % Killing (SKOV-3), 10 ng/mL TGF-B1 [14]: 9.68%
Average IFNg Secretion, 10 ng/mL TGF-B1 [14]: 3130 pg/mL
Average IP-10 Secretion, 10 ng/mL TGF-B1 [14]: 1030
5-Day Fold Expansion of NK cells, 10 ng/mL TGF-B1 [15]: 1.99 fold
Average % Killing (SKOV-3), 10 ng/mL TGF-B1 [15]: 21.1%
Average IFNg Secretion, 10 ng/mL TGF-B1 [15]: 6700 pg/mL
Average IP-10 Secretion, 10 ng/mL TGF-B1 [15]: 1170
5-Day Fold Expansion of NK cells, 10 ng/mL TGF-B1 [16]: 1.44 fold
Average % Killing (SKOV-3), 10 ng/mL TGF-B1 [16]: 8.89%
Average IFNg Secretion, 10 ng/mL TGF-B1 [16]: 3270 pg/mL
Average IP-10 Secretion, 10 ng/mL TGF-B1 [16]: 1240
5-Day Fold Expansion of NK cells, 10 ng/mL TGF-B1 [17]: 2.14 fold
Average % Killing (SKOV-3), 10 ng/mL TGF-B1 [17]: 15.2%
Average IFNg Secretion, 10 ng/mL TGF-B1 [17]: 6320 pg/mL
Average IP-10 Secretion, 10 ng/mL TGF-B1 [17]: 1000
